From paper PMC6511873 (Nucleic Acids Research, 2019)

B1: Fab J2/F/R4 (purified) (Fab, V domains shown)
VH: EVQLVESGGGLVQPGGSLRLSCAASGFNLYSSYIHWVRQAPGKGLEWVAYISPSYGYTYYADSVKGRFTISADTSKNTAYLQMNSLRAEDTAVYYCARYYYSGWAVYAGMDYWGQGTLVTVSS
VL: DIQMTQSPSSLSASVGDRVTITCRASQSVSSAVAWYQQKPGKAPKLLIYSASSLYSGVPSRFSGSRSGTDFTLTISSLQPEDFATYYCQQWHHPPAPITFGQGTKVEIK
B2: Fab J2/F/R7 (purified) (Fab, V domains shown)
VH: EVQLVESGGGLVQPGGSLRLSCAASGFNIYSSSMHWVRQAPGKGLEWVAYISPSYSYTYYADSVKGRFTISADTSKNTAYLQMNSLRAEDTAVYYCARSYWYSHYAWWWASYSVVGIDYWGQGTLVTVSS
VL: DIQMTQSPSSLSASVGDRVTITCRASQSVSSAVAWYQQKPGKAPKLLIYSASSLYSGVPSRFSGSRSGTDFTLTISSLQPEDFATYYCQQYASYPITFGQGTKVEIK
B3: Fab J2/F/R6 (purified) (Fab, V domains shown)
VH: EVQLVESGGGLVQPGGSLRLSCAASGFNLSYSSMHWVRQAPGKGLEWVAYISPSYGYTSYADSVKGRFTISADTSKNTAYLQMNSLRAEDTAVYYCARAHWSSYVSGGWAYPHHSGMDYWGQGTLVTVSS
VL: DIQMTQSPSSLSASVGDRVTITCRASQSVSSAVAWYQQKPGKAPKLLIYSASSLYSGVPSRFSGSRSGTDFTLTISSLQPEDFATYYCQQSYASVLITFGQGTKVEIK

What was measured:
[1] = molecular target: T1, Recombinant Fc-extracellular domain fusion of human Jagged-2 (Homo sapiens, UniProt Q9Y219); assay: ELISA
[2] = molecular target: T1, Recombinant Fc-extracellular domain …; assay: ELISA; remark: listed apart in the source

T1 sequence (Q9Y219 27-1080): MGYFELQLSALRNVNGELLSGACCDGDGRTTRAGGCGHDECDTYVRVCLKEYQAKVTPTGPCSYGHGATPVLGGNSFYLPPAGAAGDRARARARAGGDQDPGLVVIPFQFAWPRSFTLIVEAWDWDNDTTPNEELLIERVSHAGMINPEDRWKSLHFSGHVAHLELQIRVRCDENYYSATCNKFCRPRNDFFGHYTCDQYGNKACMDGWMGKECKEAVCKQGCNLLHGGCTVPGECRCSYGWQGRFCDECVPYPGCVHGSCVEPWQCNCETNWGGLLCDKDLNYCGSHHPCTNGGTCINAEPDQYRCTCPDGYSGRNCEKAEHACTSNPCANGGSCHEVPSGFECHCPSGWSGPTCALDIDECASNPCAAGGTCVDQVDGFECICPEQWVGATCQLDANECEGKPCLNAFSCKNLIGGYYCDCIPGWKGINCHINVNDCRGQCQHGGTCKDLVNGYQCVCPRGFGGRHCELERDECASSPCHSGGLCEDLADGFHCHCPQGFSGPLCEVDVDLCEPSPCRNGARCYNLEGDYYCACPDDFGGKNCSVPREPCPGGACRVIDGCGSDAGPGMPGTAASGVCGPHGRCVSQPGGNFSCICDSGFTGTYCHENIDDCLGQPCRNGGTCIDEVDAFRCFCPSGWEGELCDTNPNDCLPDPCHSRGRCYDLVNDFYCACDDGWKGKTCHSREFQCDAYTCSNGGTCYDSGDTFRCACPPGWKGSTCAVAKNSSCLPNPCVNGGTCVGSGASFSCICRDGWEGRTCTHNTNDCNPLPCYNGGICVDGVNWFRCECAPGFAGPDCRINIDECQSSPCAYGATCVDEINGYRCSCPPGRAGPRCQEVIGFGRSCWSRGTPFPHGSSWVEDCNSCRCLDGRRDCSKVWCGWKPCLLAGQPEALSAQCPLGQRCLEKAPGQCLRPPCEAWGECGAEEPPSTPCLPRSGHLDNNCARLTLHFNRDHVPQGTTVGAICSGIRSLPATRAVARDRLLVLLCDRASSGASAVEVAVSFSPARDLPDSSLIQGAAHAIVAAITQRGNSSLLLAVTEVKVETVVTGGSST

Binder | binding result [1] | EC50 [2] [nM]
B1 | binds | –
B2 | – | 24.6
B3 | binds | –
